Source: article PMC11116813, “Bipartite binding interface recruiting HP1 to chromosomal passenger complex at inner centromeres” (The Journal of Cell Biology, 2024)

Columns and labels:
Settings in all cases: both partners purified
[1] = target: T1, full-length human HP1α WT (hHP1α), recombinant (human, UniProt P45973 1-191); assay: ITC; VP-ITC, 10 μM INCENP peptide or fragment in the cell, 100 μM HP1α full-length or CSD dimer in the syringe, 20°C, 20 mM NaPO4 pH 7.0, 150 mM NaCl, 1 mM DTT (Fig. 2D, Fig. 3D and E); one-site model
T1 construct: heterochromatin protein 1 alpha (HP1α), human, full length; Used as a dimer; The 6His-MBP tag was removed with TEV protease; also called HP1α (full-length, FL); HP1α dimer; source: E. coli BL21 DE3 (pCold), purified (Amylose Resin, TEV cleavage, Ni-NTA flow-through, HiTrap Q)
T1 sequence (P45973 whole entry, the tested form may be a part): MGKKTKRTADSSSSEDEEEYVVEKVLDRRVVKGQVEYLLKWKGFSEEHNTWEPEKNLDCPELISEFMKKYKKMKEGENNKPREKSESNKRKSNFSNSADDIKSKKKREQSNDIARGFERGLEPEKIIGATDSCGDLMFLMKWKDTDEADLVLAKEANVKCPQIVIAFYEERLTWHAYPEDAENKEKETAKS

[2] = target: T1, full-length human HP1α WT (hHP1α), …; assay: ITC; iTC200, full-length HP1α dimer in the cell (60 μM for hINCENP, 80 μM for hSgo1), 600 μM hINCENP or 800 μM hSgo1 fragment in the syringe, 25°C, 20 mM NaPO4 pH 7.0, 150 mM NaCl, 1 mM DTT (Fig. 6A, Fig. S5A); one-site model
[3] = target: T1, full-length human HP1α WT (hHP1α), …; assay: pull-down; 10 μM full-length hHP1α mixed with 5 μM GST-tagged hINCENP -6His fragments in 20 mM NaPO4 pH 7.0, 150 mM NaCl, 1 mM DTT, 30 min at 4°C; Glutathione Sepharose 4B; CBB staining
[4] = target: T1, full-length human HP1α WT (hHP1α), …; assay: ITC; VP-ITC, 10 μM INCENP fragment in the cell, 100 μM HP1α dimer in the syringe, 20°C, 10 mM Tris pH 8.0, 150 mM NaCl, 1 mM DTT (Fig. 2C); one-site model

B1: human INCENP (121-210) -6His, GST removed (Fig. 2D) (domain or fragment, UniProt Q9NQS7 121-210, looked up)
chain: LRRVTRAAAAAAAATMALAAPSSPTPESPTMLTKKPEDNHTQCQLVPVVEIGISERQNAEQHVTQLMSTEPLPRTLSPTPASATAPTSQG
notes: source: E. coli BL21 Codon Plus (pGEX6P1), purified (Ni-NTA, PreScission cleavage, Glutathione Sepharose flow-through, SEC)
Does B1 bind [1]?
Result: binds

B2: human INCENP (160-210) -6His, GST removed (domain or fragment, UniProt Q9NQS7 160-210, looked up)
chain: HTQCQLVPVVEIGISERQNAEQHVTQLMSTEPLPRTLSPTPASATAPTSQG
notes: INCENP, human, residues 160-210; Isotope-labelled (15N or 13C/15N) in the NMR experiments and unlabelled in ITC; also called 15N-INCENP (160–210) -6His; 13C/15N-INCENP (160–210) -6His; source: E. coli BL21 Codon Plus (pGEX6P1), purified (Ni-NTA, PreScission cleavage, Glutathione Sepharose flow-through, SEC); for NMR grown in M9 medium with 15N-ammonium chloride with or without 13C-glucose; not …
Does B2 bind [1]?
Result: binds

B3: human Sgo1 fragment (405-494), Tyr-added, GST removed (domain or fragment)
chain: YAKRALKYTDEKETEGSKPTKTPTTTPPETQQSPHLSLKDITNVSLYPVVKIRRLSLSPKKNKASPAVALPKRRCTASVNYKEPTLASKLR
notes: tyrosine residue inserted after the PreScission site, to determine the concentration; Sgo1 (shugoshin 1), human, residues 405-494, contains the canonical PVI motif; also called Sgo1 fragment containing the PVI motif (residues 405–494); Sgo1 405–494; source: E. coli BL21 Codon Plus (pGEX6P1), purified (Glutathione Sepharose, PreScission cleavage, SEC)
With B3 as the binder, how does the Kd [2] read?
Its Kd is about 4 µM.

B4: GST-tagged human INCENP (160-210) -6His (domain or fragment, UniProt Q9NQS7 160-210, looked up)
chain: B2 chain
notes: INCENP, human, residues 160-210; also called INCENP fragment 160–210; source: E. coli BL21 Codon Plus (pGEX6P1), purified (non-cleaved version, SEC); not shown: His6, C-terminal, kept
Does B4 bind [3]?
Result: binds

B5: human INCENP (121-270) WT -6His, GST removed (domain or fragment, UniProt Q9NQS7 121-270, looked up)
chain: LRRVTRAAAAAAAATMALAAPSSPTPESPTMLTKKPEDNHTQCQLVPVVEIGISERQNAEQHVTQLMSTEPLPRTLSPTPASATAPTSQGIPTSDEESTPKKSKARILESITVSSLMATPQDPKGQGVGTGRSASKLRIAQVSPGPRDSP
notes: The methods describe no removal of the 6His tag; source: E. coli BL21 Codon Plus (pGEX6P1), purified (Ni-NTA, PreScission cleavage, Glutathione Sepharose flow-through, SEC)
B5 was tested. Which Kd [4] did it give?
Its Kd is 0.042 µM.
